Like-named read-outs stand apart in the source and are kept apart here.
Legend:
[1] = target: recombinant human neuronal calcium channel α1B-1β1-2 (human), Q00975; test: 125I-ω-CgTx GVIA saturation binding to transiently transfected HEK293 cells
[2] = target: recombinant human neuronal calcium channel α1B-2α2bβ1-2 (human); test: as above
[3] = target: recombinant human neuronal calcium channel α1B-2β1-3 (human), Q00975; test: as above
[4] = target: recombinant human neuronal calcium channel α1B-1β1-3 (human), Q00975; test: as above
[5] = target: T1, recombinant human neuronal calcium channel α1B-1α2bβ1-2 (human), Q00975; test: as above
[6] = target: recombinant human neuronal calcium channel α1B-1α2bβ1-3 (human); test: as above
[7] = target: T2, recombinant human neuronal calcium channel α1B-1α2b (human); test: as above
[8] = target: recombinant human neuronal calcium channel α1B-2α2bβ1-3 (human), Q00975; test: as above
[9] = target: recombinant human neuronal calcium channel α1B-2β1-2 (human), Q00975; test: as above
[10] = target: human neuronal calcium channel α1B-1 subunit (expressed alone) (human), Q00975
[11] = target: T2, recombinant human neuronal calcium …
[12] = target: T1, recombinant human neuronal calcium …

Work on CKSPGSSCSPTSYNCCRSCNPYTKRCYG (modifications not checked) [125I-ω-CgTx GVIA, P01522 46-73] yielded a Bmax [1] of 5760 sites/cell, a Kd [1] of 0.0179 nM and a fold change of surface binding against α1B-1 alone [1] of 8 fold. It also gave a Bmax [2] of 19400 sites/cell, a Kd [2] of 0.053 nM and a fold change of surface receptor density against α1B-2β1-2 [2] of 9 fold. For the same binder, the Bmax [3] was 2940 sites/cell, the Kd [3] was 0.0222 nM and the Bmax [4] was 8730 sites/cell. The Kd [4] was 0.0179 nM, the fold change of surface binding against α1B-1 alone [4] was 10 fold and the Bmax [5] was 45300 sites/cell. For the same binder, the Kd [5] was 0.0549 nM, the fold change of binding sites per cell against α1B-2α2bβ1-2 [5] was 2.5 fold and the fold change of surface receptor density against α1B-1β1-2 [5] was 8 fold. It also gave a Bmax [6] of 91000 sites/cell, a Kd [6] of 0.0532 nM and a fold change of binding capacity against α1B-1α2bβ1-2 [6] of 2 fold. The fold change of binding sites per cell against α1B-2α2bβ1-3 [6] was 2.5 fold, the fold change of surface receptor density against α1B-1β1-3 [6] was 10 fold and the fold change of binding capacity against α1B-1 alone [7] was 3 fold. The Bmax [8] was 37700 sites/cell, the Kd [8] was 0.0443 nM and the fold change of binding capacity against α1B-2α2bβ1-2 [8] was 2 fold. For the same binder, the fold change of surface receptor density against α1B-2β1-3 [8] was 13 fold, the Bmax [9] was 2130 sites/cell and the Kd [9] was 0.0164 nM. For the same binder, the Bmax [10] was 757 sites/cell, the Kd [10] was 0.0317 nM and the Bmax [11] was 2260 sites/cell. The Kd [11] was 0.0846 nM.

For CKSPGSSCSPTSYNCCRSCNPYTKRCYG (modifications not checked) [ω-CgTx, P01522 46-73], the Kd [12] was 0.0546 nM and the binding capacity (Bmax) (sites per cell) [12] was 28700.
